Laboratory results taken from patent US20200199241A1 (Chugai, published 2020).
Residue numbers refer to the chain shown, from its start.

B1: IL6R-BP191/IL6R-L (antibody, human IgG1)
heavy: QVQLQESGPGLVKPSETLSLTCAVSGHSISHDHAWSWVRQPPGEGLEWIGFISYSGITNYNPSLQGRVTISRDNSKNTLYLQMNSLRAEDTAVYYCARSLARTTAMDYWGEGTLVTVSSASTKGPSVFPLAPSSKSTSGGTAALGCLVKDYFPEPVTVSWNSGALTSGVHTFPAVLQSSGLYSLSSVVTVPSSSLGTQTYICNVNHKPSNTKVDKKVEPKSCDKTHTCPPCPAPDLLGGDSVFLFPPKPKDTLMISRTPEVTCVVVDVSDEDGEVKFNWYVDGVEVHNAKTKPREEQYNSTYRVVSVLTVLHQDWLNGKEYKCKVSNAALPKPIEKTISKAKGQPREPQVYTLPPSRDELTKNQVSLTCLVKGFYPSDIAVEWESNGQPENNYKTTPPVLDSDGSFFLYSKLTVDKSRWQQGNVFSCSVMHEALHNHYTQESLSLSP
light: DIQMTQSPSSLSASVGDRVTITCRASQDISSYLNWYQQKPGKAPKLLIYYTSRLHSGVPSRFSGSGSGTDFTFTISSLQPEDIATYYCQQGNTLPYTFGQGTKVEIK
notes: Anti-IL-6R human IgG1 variant; copies: 2 + 2
B2: IL6R-BP186/IL6R-L (antibody, human IgG1)
heavy: B1 heavy with L236Y, G239D, D270H, Y298D
light: B1 light
notes: as for B1
B3: IL6R-BP183/IL6R-L (antibody, human IgG1)
heavy: B1 heavy with L236Y, D270H
light: B1 light
notes: as for B1
B4: IL6R-BP184/IL6R-L (antibody, human IgG1)
heavy: B1 heavy with D270H, A328K
light: B1 light
notes: as for B1
B5: IL6R-BP189/IL6R-L (antibody, human IgG1)
heavy: B1 heavy with D235E, G239D
light: B1 light
notes: as for B1
B6: IL6R-BP185/IL6R-L (antibody, human IgG1)
heavy: B1 heavy with L236Y, G239D, D270H
light: B1 light
notes: as for B1
B7: IL6R-BP190/IL6R-L (antibody, human IgG1)
heavy: B1 heavy with D235E, G239D, A328K
light: B1 light
notes: as for B1
B8: IL6R-BP194/IL6R-L (antibody, human IgG1)
heavy: B1 heavy with L236Y, G239D
light: B1 light
notes: as for B1
B9: IL6R-BP188/IL6R-L (antibody, human IgG1)
heavy: B1 heavy with G239D, A328K
light: B1 light
notes: as for B1
B10: IL6R-BP187/IL6R-L (antibody, human IgG1)
heavy: B1 heavy with D235E, L236Y, D270H
light: B1 light
notes: as for B1
B11: IL6R-BP078/IL6R-L (antibody, human IgG1)
heavy: B1 heavy with D235E, D270H, G273P, A328K, K332M
light: B1 light
notes: IgG1; Fc variant of IL6R-B3; copies: 2 + 2
B12: IL6R-BP107/IL6R-L (antibody, human IgG1)
heavy: B1 heavy with D235E, D270E, G273P, A328K, K332A
light: B1 light
notes: as for B11
B13: IL6R-BP117/IL6R-L (antibody, human IgG1)
heavy: B1 heavy with D235E, D270H, G273P, A328D, K332A
light: B1 light
notes: as for B11
B14: IL6R-BP911/IL6R-L (antibody, human IgG1)
heavy: B1 heavy with D235E, D270H, G273P, A328K
light: B1 light
notes: as for B11
B15: IL6R-BP120/IL6R-L (antibody, human IgG1)
heavy: B1 heavy with D235E, D270H, G273P, A328E, K332A
light: B1 light
notes: as for B11
B16: IL6R-BP106/IL6R-L (antibody, human IgG1)
heavy: B1 heavy with D235E, G273P, A328K, K332A
light: B1 light
notes: as for B11
B17: IL6R-BP126/IL6R-L (antibody, human IgG1)
heavy: B1 heavy with D235E, D270H, G273P, A328L, K332A
light: B1 light
notes: as for B11
B18: IL6R-BP112/IL6R-L (antibody, human IgG1)
heavy: B1 heavy with D235E, D270H, A328K, K332A
light: B1 light
notes: as for B11

What follows are binders tested against T1, FcγRIa (human, UniProt P12314 16-292, limits assumed) (assay: SPR (Biacore), method of Example 14).
T1 construct: also called CD64
T1 sequence (P12314 16-292 limits assumed): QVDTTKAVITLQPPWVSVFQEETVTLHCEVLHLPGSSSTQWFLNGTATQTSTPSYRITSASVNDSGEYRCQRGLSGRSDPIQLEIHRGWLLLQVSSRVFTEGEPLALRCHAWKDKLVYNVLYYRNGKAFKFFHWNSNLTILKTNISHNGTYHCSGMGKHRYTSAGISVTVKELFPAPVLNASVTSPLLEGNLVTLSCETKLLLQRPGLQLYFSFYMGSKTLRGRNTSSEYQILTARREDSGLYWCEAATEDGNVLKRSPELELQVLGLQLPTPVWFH
From the text: (§1) Furthermore, KD(IIaR)/KD(IIb) and KD(IIaH)/KD(IIb) in the table respectively represent the value obtained by dividing the KD value of each variant for FcγRIIaR by the KD value of each variant for FcγRIIb, and the value obtained by dividing the KD value of each variant for FcγRIIaH by the KD value of each variant for FcγRIIb. KD(IIb) of the parent polypeptide/KD(IIb) of the altered polypeptide refers to the value obtained by dividing the KD value of the parent polypeptide for FcγRIIb by the KD value of each variant for FcγRIIb.
Work on B1 yielded a Kd of 4 nM. For B2, the Kd was 45 nM. For B3, the Kd was 17 nM. In the case of B4, the Kd is reported as 11 nM. Work on B5 yielded a Kd of 42 nM. Binder B6 has a Kd of 63 nM. In the case of B7, the Kd is reported as 63 nM. In the case of B8, the Kd is reported as 24 nM. B9 was tested, and the Kd was 21 nM. With B10 the Kd was 25 nM.

Target: T2, FcγRIIa type R (human, UniProt P12318 36-217)
T2 construct: also called FcγRIIaR; FcγRIIa(R)
T2 chain: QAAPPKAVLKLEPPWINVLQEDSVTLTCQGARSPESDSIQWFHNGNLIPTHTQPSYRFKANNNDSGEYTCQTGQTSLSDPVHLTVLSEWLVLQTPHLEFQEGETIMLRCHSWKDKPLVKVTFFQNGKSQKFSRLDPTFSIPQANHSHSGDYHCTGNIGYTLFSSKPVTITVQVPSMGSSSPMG
Assay: SPR (Biacore), method of Example 14
From the text: as §1
For B1, the Kd was 3000 nM. B2 gave a Kd of 960 nM. B3 gave a Kd of 2600 nM. B4 was tested, and the Kd was 2300 nM. In the case of B5, the Kd is reported as 1400 nM. B6 was tested, and the Kd was 880 nM. B7 was tested, and the Kd was 1100 nM. In the case of B8, the Kd is reported as 820 nM. B9 gave a Kd of 1000 nM. With B10 the Kd was 2800 nM.

These binders were tested against T3, FcγRIIa type H (human, UniProt P12318 36-217) (assay: SPR (Biacore), method of Example 14).
T3 construct: also called FcγRIIaH; FcγRIIa(H)
T3 sequence: T2 chain with R133H
From the text: as §1
For B1, the Kd was 27 µM. B2 was tested, and the Kd was 9.3 µM. B3 showed a Kd of 15 µM. B4 was tested, and the Kd was 30 µM. B5 showed a Kd of 21 µM. In the case of B7, the Kd is reported as 17 µM. With B8 the Kd was 8.5 µM. B9 gave a Kd of 16 µM. In the case of B10, the Kd is reported as 18 µM.

What follows are binders tested against T4, FcγRIIb (human, UniProt P31994 43-217, limits assumed) (assay: SPR (Biacore), method of Example 14).
T4 construct: also called FcγIIB; CD32
T4 sequence: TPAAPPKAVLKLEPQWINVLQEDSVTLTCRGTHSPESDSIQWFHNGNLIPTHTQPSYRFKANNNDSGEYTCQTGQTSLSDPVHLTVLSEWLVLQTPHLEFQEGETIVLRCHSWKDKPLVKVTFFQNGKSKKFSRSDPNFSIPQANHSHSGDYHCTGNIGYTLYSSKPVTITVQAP
From the text: as §1
With B1 the Kd was 150 nM. Binder B2 has a Kd of 61 nM. Binder B3 has a Kd of 240 nM. In the case of B4, the Kd is reported as 130 nM. Binder B5 has a Kd of 74 nM. With B6 the Kd was 69 nM. In the case of B7, the Kd is reported as 58 nM. Work on B8 yielded a Kd of 52 nM. For B9, the Kd was 46 nM. Binder B10 has a Kd of 290 nM.

Each binder was assayed against T5, FcγRIIIa type V (human, UniProt P08637 17-208, limits assumed) (assay: SPR (Biacore), method of Example 14).
T5 construct: also called FcγRIIIaV; FcγRIIIa(V)
T5 sequence (P08637 17-208 F176V limits assumed): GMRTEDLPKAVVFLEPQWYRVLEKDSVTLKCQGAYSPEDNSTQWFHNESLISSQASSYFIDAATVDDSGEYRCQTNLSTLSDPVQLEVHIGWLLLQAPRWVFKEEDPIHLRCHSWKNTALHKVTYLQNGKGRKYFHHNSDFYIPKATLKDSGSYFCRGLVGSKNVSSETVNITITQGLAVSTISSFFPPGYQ
From the text: as §1
With B1 the Kd was 49 µM. B2 gave a Kd of 49 µM. With B3 the Kd was 56 µM. B4 gave a Kd of 66 µM. Work on B5 yielded a Kd of 49 µM. Work on B6 yielded a Kd of 36 µM. B7 was tested, and the Kd was 45 µM. B8 gave a Kd of 27 µM. B9 was tested, and the Kd was 58 µM. Binder B10 has a Kd of 56 µM.

What follows are binders tested against T6, FcγRIa (human, UniProt P12314 16-292, limits assumed) (assay: SPR (Biacore), FcγR over captured antibody).
T6 construct: also called FcgRIa; CD64
T6 sequence (P12314 16-292 limits assumed): as the sequence (P12314 16-292 limits assumed) above
With B11 the Kd was 8.2 nM. In the case of B12, the Kd is reported as 1.5 nM. With B13 the Kd was 4.1 nM. In the case of B14, the Kd is reported as 49 nM. Binder B15 has a Kd of 6.6 nM. B16 showed a Kd of 4 nM. With B17 the Kd was 7.4 nM. Binder B18 has a Kd of 6.5 nM.

Target: T7, FcγRIIa type R (human, UniProt P12318 36-217)
T7 construct: also called FcγRIIaR; FcgRIIaR
T7 chain: T2 chain
Assay: SPR (Biacore), FcγR over captured antibody
Work on B11 yielded a Kd of 15 µM. For B12, the Kd was 12 µM. Work on B13 yielded a Kd of 9.2 µM. In the case of B14, the Kd is reported as 16 µM. B15 gave a Kd of 9.6 µM. Work on B16 yielded a Kd of 11 µM. B17 showed a Kd of 11 µM. B18 showed a Kd of 3.5 µM.

These binders were tested against T8, FcγRIIa type H (human, UniProt P12318 36-217) (assay: SPR (Biacore), FcγR over captured antibody).
T8 construct: also called FcγRIIaH; FcγRIIH
T8 sequence: T2 chain with R133H
In the case of B11, the Kd is reported as 45 µM. B12 was tested, and the Kd was 52 µM. For B13, the Kd was 41 µM. B14 gave a Kd of 37 µM. For B15, the Kd was 65 µM. In the case of B16, the Kd is reported as 36 µM. B17 showed a Kd of 45 µM. For B18, the Kd was 35 µM.

These binders were tested against T9, FcγRIIb (human, UniProt P31994 43-217, limits assumed) (assay: SPR (Biacore), FcγR over captured antibody).
T9 construct: also called FcgRIIb; FcγIIB
T9 sequence: T4 sequence
In the case of B11, the Kd is reported as 1100 nM. In the case of B12, the Kd is reported as 930 nM. B13 showed a Kd of 800 nM. For B14, the Kd was 890 nM. Binder B15 has a Kd of 1000 nM. B16 gave a Kd of 930 nM. For B17, the Kd was 1400 nM. B18 gave a Kd of 320 nM.

These binders were tested against T10, FcγRIIIa type V (human, UniProt P08637 17-208, limits assumed) (assay: SPR (Biacore), FcγR over captured antibody).
T10 construct: also called FcγRIIIaV; FcgRIIIaV
T10 sequence (P08637 other isoform, or with tags, fused parts or gaps limits assumed): as the sequence (P08637 17-208 F176V limits assumed) above, with A179S counted along it
For B11, the Kd was 78 µM. For B12, the Kd was 63 µM. Work on B13 yielded a Kd of 67 µM. Work on B14 yielded a Kd of 58 µM. In the case of B15, the Kd is reported as 79 µM. With B16 the Kd was 55 µM. B17 gave a Kd of 56 µM. For B18, the Kd was 69 µM.

These binders were tested against T4, FcγRIIb (assay: ratio of SPR KD values, parent IL6R-B3/IL6R-L).
For B1, the “KD(IIb) of the parent polypeptide/KD(IIb) of altered polypeptide” value (“KD(IIb) … of altered polypeptide” for short) was 21.2 fold. With B2 the “KD(IIb) … of altered polypeptide” value was 50.7 fold. For B3, the “KD(IIb) … of altered polypeptide” value was 12.9 fold. In the case of B4, the “KD(IIb) … of altered polypeptide” value is reported as 24.5 fold. For B5, the “KD(IIb) … of altered polypeptide” value was 41.8 fold. For B6, the “KD(IIb) … of altered polypeptide” value was 44.5 fold. With B7 the “KD(IIb) … of altered polypeptide” value was 53.2 fold. For B8, the “KD(IIb) … of altered polypeptide” value was 59.4 fold. With B9 the “KD(IIb) … of altered polypeptide” value was 67.6 fold. B10 was tested, and the “KD(IIb) … of altered polypeptide” value was 10.7 fold.

Each binder was assayed against T4, FcγRIIb (assay: SPR (Biacore); KD for FcγRIIaH divided by KD for FcγRIIb of the same antibody; column head in Table 52-1).
From the text: as §1
With B1 the “KD(IIaH)/KD(IIb)” value was 185. For B2, the “KD(IIaH)/KD(IIb)” value was 152. B3 was tested, and the “KD(IIaH)/KD(IIb)” value was 62.5. With B4 the “KD(IIaH)/KD(IIb)” value was 238. For B5, the “KD(IIaH)/KD(IIb)” value was 284. With B6 the “KD(IIaH)/KD(IIb)” value was 105. For B7, the “KD(IIaH)/KD(IIb)” value was 293. In the case of B8, the “KD(IIaH)/KD(IIb)” value is reported as 164. With B9 the “KD(IIaH)/KD(IIb)” value was 350. B10 was tested, and the “KD(IIaH)/KD(IIb)” value was 62.3.

These binders were tested against T4, FcγRIIb (assay: SPR (Biacore); KD for FcγRIIaR divided by KD for FcγRIIb of the same antibody; column head in Table 52-1).
From the text: as §1
With B1 the “KD(IIaR)/KD(IIb)” value was 20.3. For B2, the “KD(IIaR)/KD(IIb)” value was 15.8. With B3 the “KD(IIaR)/KD(IIb)” value was 10.7. With B4 the “KD(IIaR)/KD(IIb)” value was 18.2. In the case of B5, the “KD(IIaR)/KD(IIb)” value is reported as 18.5. In the case of B6, the “KD(IIaR)/KD(IIb)” value is reported as 12.6. In the case of B7, the “KD(IIaR)/KD(IIb)” value is reported as 12.3. In the case of B8, the “KD(IIaR)/KD(IIb)” value is reported as 15.8. With B9 the “KD(IIaR)/KD(IIb)” value was 21.9. For B10, the “KD(IIaR)/KD(IIb)” value was 9.7.
